Results: patent publication US20200317817A1 (XOMA US, published 2020)

How the values were obtained:
[1] = biological target: T1, human PTH1R overexpressed on CHO cells (human, UniProt Q03431 27-593); assay: cell-based or functional assay
T1 sequence (looked up): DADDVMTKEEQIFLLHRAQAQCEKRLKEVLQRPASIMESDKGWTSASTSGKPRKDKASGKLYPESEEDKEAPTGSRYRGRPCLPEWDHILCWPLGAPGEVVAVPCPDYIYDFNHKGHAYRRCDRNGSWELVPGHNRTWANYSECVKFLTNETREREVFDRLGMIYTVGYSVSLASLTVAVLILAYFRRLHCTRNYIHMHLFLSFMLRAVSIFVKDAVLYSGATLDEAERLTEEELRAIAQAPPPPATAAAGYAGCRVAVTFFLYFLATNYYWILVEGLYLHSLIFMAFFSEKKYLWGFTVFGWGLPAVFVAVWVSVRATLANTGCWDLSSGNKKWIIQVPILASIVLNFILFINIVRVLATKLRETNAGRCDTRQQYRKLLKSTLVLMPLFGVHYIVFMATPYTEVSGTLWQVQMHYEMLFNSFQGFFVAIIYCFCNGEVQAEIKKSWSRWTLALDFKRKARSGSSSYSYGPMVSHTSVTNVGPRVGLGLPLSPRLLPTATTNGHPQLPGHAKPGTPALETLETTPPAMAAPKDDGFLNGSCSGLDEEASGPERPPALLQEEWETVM

[2] = biological target: T2, mouse PTH1R overexpressed on CHO cells (mouse, UniProt P41593 27-591); assay: cell-based or functional assay
T2 sequence (looked up): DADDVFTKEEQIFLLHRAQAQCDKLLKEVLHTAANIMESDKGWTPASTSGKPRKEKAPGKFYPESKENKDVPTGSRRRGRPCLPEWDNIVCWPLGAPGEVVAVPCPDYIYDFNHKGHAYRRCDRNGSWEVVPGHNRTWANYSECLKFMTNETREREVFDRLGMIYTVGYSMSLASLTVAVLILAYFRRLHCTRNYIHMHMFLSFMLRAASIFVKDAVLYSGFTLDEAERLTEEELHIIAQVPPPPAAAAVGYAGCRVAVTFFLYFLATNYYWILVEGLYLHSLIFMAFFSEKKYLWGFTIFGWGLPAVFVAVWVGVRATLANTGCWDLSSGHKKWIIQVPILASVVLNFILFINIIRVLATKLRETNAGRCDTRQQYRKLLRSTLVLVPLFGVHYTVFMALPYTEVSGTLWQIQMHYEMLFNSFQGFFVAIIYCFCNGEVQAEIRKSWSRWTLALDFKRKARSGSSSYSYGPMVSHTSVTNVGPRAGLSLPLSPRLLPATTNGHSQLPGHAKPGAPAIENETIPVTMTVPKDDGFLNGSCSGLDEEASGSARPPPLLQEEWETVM

[3] = biological target: T3, rat PTH1R on UMR106 cells (rat, UniProt P25961 27-591); assay: cell-based or functional assay
T3 sequence (looked up): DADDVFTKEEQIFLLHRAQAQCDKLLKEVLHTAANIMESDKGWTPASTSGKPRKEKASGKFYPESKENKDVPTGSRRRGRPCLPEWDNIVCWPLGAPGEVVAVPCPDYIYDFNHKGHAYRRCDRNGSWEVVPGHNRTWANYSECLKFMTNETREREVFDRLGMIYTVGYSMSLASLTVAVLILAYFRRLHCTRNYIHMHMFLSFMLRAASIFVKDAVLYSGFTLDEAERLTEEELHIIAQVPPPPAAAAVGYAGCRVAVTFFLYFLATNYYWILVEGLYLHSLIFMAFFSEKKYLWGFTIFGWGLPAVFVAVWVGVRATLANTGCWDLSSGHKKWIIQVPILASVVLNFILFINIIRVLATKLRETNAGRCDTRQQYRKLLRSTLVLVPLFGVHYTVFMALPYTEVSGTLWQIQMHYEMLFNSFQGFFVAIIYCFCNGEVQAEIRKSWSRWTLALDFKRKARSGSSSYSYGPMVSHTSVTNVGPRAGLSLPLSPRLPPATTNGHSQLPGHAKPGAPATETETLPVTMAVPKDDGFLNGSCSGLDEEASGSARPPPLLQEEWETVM

[4] = biological target: T4, human PTH1R on Saos-2 cells (endogenous) (human, UniProt Q03431 27-593); assay: cell-based or functional assay
T4 sequence (looked up): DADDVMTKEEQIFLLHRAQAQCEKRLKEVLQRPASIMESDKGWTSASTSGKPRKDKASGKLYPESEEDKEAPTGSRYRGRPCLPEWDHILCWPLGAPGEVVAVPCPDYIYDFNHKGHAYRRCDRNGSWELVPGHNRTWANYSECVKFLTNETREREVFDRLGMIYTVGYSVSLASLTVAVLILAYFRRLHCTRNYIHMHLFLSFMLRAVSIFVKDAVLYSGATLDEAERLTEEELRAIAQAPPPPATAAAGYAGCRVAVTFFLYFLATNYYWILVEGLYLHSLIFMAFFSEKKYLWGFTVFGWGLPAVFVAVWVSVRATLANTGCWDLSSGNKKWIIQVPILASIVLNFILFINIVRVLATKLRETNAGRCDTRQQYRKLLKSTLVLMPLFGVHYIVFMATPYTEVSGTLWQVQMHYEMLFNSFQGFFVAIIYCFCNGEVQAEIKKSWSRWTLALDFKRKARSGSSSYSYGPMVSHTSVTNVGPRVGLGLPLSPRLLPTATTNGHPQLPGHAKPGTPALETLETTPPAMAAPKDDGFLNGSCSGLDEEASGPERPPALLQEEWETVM

[5] = biological target: T4, human PTH1R on Saos-2 cells (endogenous); assay: cell-based or functional assay; remark: listed apart in the source
[6] = biological target: T3, rat PTH1R on UMR106 cells; assay: cell-based or functional assay; remark: listed apart in the source
[7] = biological target: T4, human PTH1R on Saos-2 cells (endogenous); assay: cell-based or functional assay; remark: listed apart in the source
[8] = biological target: T1, human PTH1R overexpressed on CHO cells; assay: cell-based or functional assay; remark: listed apart in the source
[9] = biological target: T2, mouse PTH1R overexpressed on CHO cells; assay: cell-based or functional assay; remark: listed apart in the source
[10] = biological target: T5, recombinant N-terminal extracellular domain of the human PTH1R receptor (human, UniProt Q03431 27-188, limits assumed); assay: SPR, IgG captured, ECD injected
T5 construct: domain: N-terminal extracellular domain; Bought reagent; also called N-ECD PTH1R; PTH1R N-terminal ECD
T5 sequence (looked up): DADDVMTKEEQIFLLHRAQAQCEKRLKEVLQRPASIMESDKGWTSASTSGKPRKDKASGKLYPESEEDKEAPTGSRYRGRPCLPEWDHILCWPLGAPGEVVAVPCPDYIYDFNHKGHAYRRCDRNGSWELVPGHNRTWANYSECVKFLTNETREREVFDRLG
How it was run: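 Antibodies (0.5 μg/mL) captured on anti-human IgG-Fc chip to 100–200 RU in HBS-EP+ with 2.5 mg/mL BSA; receptor ECD injected at 30 μL/minute for 240 s, 360 s dissociation, 3M MgCl regeneration. Double-referenced data fit globally for ka and kd; KD=kd/kₐ.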

[11] = biological target: T6, human PTH2R overexpressed on CHO cells (human, UniProt P49190 25-550); assay: flow cytometry on CHO cells overexpressing human PTH2R, 1 hr at 4 C, APC anti-human IgG
T6 construct: whole, on cells; also called CHO human PTH2R
T6 sequence (P49190 25-550): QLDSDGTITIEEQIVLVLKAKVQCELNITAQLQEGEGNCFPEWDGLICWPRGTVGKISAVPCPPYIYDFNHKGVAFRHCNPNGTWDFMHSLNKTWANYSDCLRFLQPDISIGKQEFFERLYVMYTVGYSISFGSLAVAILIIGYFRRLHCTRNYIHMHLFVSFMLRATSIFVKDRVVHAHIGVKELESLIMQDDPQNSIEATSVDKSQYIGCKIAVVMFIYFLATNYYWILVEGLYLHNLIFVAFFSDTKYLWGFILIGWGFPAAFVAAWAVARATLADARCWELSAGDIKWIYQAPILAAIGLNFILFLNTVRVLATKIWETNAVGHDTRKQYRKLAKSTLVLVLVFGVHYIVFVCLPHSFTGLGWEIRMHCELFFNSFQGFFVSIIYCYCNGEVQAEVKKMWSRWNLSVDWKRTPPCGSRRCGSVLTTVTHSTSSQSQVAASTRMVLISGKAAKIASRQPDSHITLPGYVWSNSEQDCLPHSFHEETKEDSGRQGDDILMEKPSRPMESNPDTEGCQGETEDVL
Experimental: Increasing concentrations of anti-PTH1R antibodies were added to CHO cells overexpressing human PTH2R and incubated for 1 hr at 4° C. (FIG. 8). Cells were washed twice with FACS Buffer and antibody binding was detected with anti-human IgG APC. […] Anti-KLH.G2 was used a negative control for binding.
PTH2R has a 51% homology to PTH1R. […] Following two washes, cells were incubated with Allophycocyanin (APC) AffiniPure F(ab′)₂ Fragment Goat Anti-Human IgG (H+L) (Jackson ImmunoResearch, West Grove, Pa.) for 20 minutes at 4° C. Cells were washed twice and resuspended in FACS Buffer. Samples were acquired using BD Cytometer (BD Biosciences, San Jose, Calif.) and data were analyzed using FlowJo (FlowJo, LLC, Ashland, Oreg.) and Prism (GraphPad Software, La Jolla, Calif.). […] Anti-KLH.G2 was used a negative control for binding.

[12] = biological target: T7, human PTH1R overexpressed on Saos-2 cells (human, UniProt Q03431 27-593); assay: flow cytometry on Saos-2 cells overexpressing human PTH1R, antibody alone, PE anti-human IgG
T7 construct: whole, on cells; also called Saos-2 human PTH1R cells
T7 sequence (looked up): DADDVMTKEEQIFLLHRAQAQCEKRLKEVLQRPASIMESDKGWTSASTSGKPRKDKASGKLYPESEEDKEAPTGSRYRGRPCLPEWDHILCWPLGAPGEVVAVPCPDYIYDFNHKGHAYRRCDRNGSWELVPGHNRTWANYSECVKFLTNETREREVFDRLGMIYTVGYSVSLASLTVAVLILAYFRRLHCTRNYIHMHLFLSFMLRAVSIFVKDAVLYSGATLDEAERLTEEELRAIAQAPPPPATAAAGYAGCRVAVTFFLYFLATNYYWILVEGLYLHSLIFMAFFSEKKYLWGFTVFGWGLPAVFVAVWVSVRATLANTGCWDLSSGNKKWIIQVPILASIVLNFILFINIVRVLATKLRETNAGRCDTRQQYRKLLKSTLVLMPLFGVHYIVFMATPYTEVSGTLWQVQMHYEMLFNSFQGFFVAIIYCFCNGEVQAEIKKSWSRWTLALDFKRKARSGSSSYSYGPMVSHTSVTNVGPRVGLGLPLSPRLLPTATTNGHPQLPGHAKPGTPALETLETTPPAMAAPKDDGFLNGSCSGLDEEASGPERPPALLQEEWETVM

[13] = biological target: T7, human PTH1R overexpressed on Saos-2 …; assay: flow cytometry on Saos-2 cells overexpressing human PTH1R, in the presence of 1 uM PTH, PE anti-human IgG
[14] = biological target: T7, human PTH1R overexpressed on Saos-2 …; assay: flow cytometry on Saos-2 cells overexpressing human PTH1R, in the presence of 3 uM PTHrP, PE anti-human IgG
[15] = biological target: T7, human PTH1R overexpressed on Saos-2 …; assay: flow cytometry on Saos-2 cells overexpressing human PTH1R, antibody alone, PE anti-human IgG; remark: listed apart in the source
[16] = biological target: T7, human PTH1R overexpressed on Saos-2 …; assay: flow cytometry on Saos-2 cells overexpressing human PTH1R, in the presence of 1 uM PTH, PE anti-human IgG; remark: listed apart in the source
[17] = biological target: T7, human PTH1R overexpressed on Saos-2 …; assay: flow cytometry on Saos-2 cells overexpressing human PTH1R, in the presence of 3 uM PTHrP, PE anti-human IgG; remark: listed apart in the source
Source text: Antibody binding was detected with R-Phycoerythrin anti-human IgG.

| Molecule | EC50 of antibody, neutralization of M-CSF production induced by 12.5 nM PTHrP (1-36) [5] | fold shift of the PTHrP (1-36) dose response, M-CSF secretion by Saos-2 cells, 40 µg/mL antibody [5] | IC50, inhibition of PTH(1-34)-induced cAMP accumulation [8] | IC50, inhibition of PTHrP(1-34)-induced cAMP accumulation [8] | IC50, inhibition of PTHrP(1-34)-induced cAMP accumulation [9] | Kd [10] | koff [10] | kon [10] | binding result [11] | other results |
| --- | --- | --- | --- | --- | --- | --- | --- | --- | --- | --- |
| Human PTH(1-34) (from UniProt P01270 32-65) (peptide) | – | – | – | – | – | – | – | – | – | EC50 of PTH (1-34) induced ERK1/2 phosphorylation without anti-PTH1R antibody [1]: 3.8 nM; EC50 of PTH(1-34), cAMP assay, vehicle only [1]: 30.7 pM; EC50 of PTH(1-34), cAMP assay, vehicle only [2]: 30.6 pM; EC50 of PTH(1-34), cAMP assay, vehicle only [3]: 647 pM; EC50 of PTH(1-34), cAMP assay, vehicle only [4]: 524 pM; PTH (1-34) dose response without anti-PTH1R antibody, M-CSF secretion by Saos-2 cells [4]: 1.2 nM |
| human PTHrP(1-34) (from UniProt P12272 37-70) (peptide) | – | – | – | – | – | – | – | – | – | EC50 of PTHrP(1-34), cAMP assay, vehicle only [2]: 43.1 pM; EC50 of PTHrP(1-34), cAMP assay, vehicle only [3]: 333 pM |
| XPA.85.330 (antibody, V domains shown, IgG; also called Ab330) VH: QMQLVQSGAEVKKPGSSVKVSCKASGGTFSSYAISWVRQAPGQGLEWMGGIIPIFGTANYAQKFQGRVTITADESTSTAYMELSSLRSEDTAVYYCARGYVVARLWGQGTLVTVSS VL: DIVMTQTPLSLSVTPGQPASISCKSSQSLLHIDGNTYLYWYLQRPGQPPQLLIYEISNRFSGVPDRFSGSGSGTDFTLKISRVEAEDVGVYYCMQSLHFPITFGQGTRLEIK | 1.5 nM | > 200 fold | 10.6 nM | 8.23 nM | 2.82 nM | 0.19 nM | 9e-05 s⁻¹ | 470000 M⁻¹ s⁻¹ | no binding (tested: about 160 nM) | % inhibition of cAMP accumulation at 1 µM PTH(1-34), 267 nM IgG [6]: 55%; % inhibition of cAMP accumulation at 1 µM PTHrP(1-34), 267 nM IgG [6]: 56%; % inhibition of cAMP accumulation at 1 µM PTH(1-34), 267 nM IgG [7]: 85%; % inhibition of cAMP accumulation at 1 µM PTHrP(1-34), 267 nM IgG [7]: 89%; EC50 [12]: 3.67 nM; EC50 [13]: 21.7 nM; EC50 [14]: 193 nM |
| XPA.85.328 (antibody, V domains shown, IgG; also called Ab328) VH: QMQLVQSGAEVKKPGSSVKVSCKASGGTFSSYAISWVRQAPGQGLEWMGGIIPIFGTANYAQKFQGRVTITADESTSTAYMELSSLRSEDTAVYYCARGYVVARLWGQGTLVTVSS VL: DVVMTQTPLSLSVTPGQPASISCKSSQSLLHIDGKTYLYWYLQKSGQSPQLLIYEVSNRFSGVPDTFSGSGSGTDFTLKISRVEAEDVGVYYCMQSLHFPITFGQGTRLEIK | 6.6 nM | > 200 fold | 11.8 nM | 7.06 nM | 2.23 nM | 0.32 nM | 0.00018 s⁻¹ | 560000 M⁻¹ s⁻¹ | no binding (tested: about 160 nM) | EC50 [15]: 4.4 nM; EC50 [16]: 67.4 nM; EC50 [17]: 465 nM |
